Measurements from patent US8252764B2, “Compositions and methods of use of targeting peptides against placenta and adipose tissues” (priority 2000, dated 2012).

Experiments:
GST-β1 = molecular target: T1, GST-β1 (Homo sapiens, UniProt P05556); test: Annexin V binding to GST-β1 integrin cytoplasmic domain (ELISA)
T1 construct: Plates were coated with GST fusion proteins of the cytoplasmic domains of various integrins
Experimental: (§1) Competitive binding assays were performed to examine the binding of Annexin V to β5 integrin and the effect of the VISY peptide. Plates were coated with GST fusion proteins of the cytoplasmic domains of various integrins and Annexin V was added to the plates. Binding of Annexin V was determined using anti-Annexin V antibodies. […] Calcium was used because Annexin V activity has been reported to be modulated by calcium. Binding of Annexin V to GST-β5 was blocked by addition of the VISY peptide (FIG. 29A).

β5 integrin = molecular target: T2, β5 integrin (Homo sapiens, UniProt P18084); test: Annexin V binding to GST-β5 integrin cytoplasmic domain (ELISA, competition); settings: binding dependent on the buffer: low in TBS, high in cytoplasmic buffer
T2 construct: Plates were coated with GST fusion proteins of the cytoplasmic domains of various integrins
T2 sequence (P18084 743-799 limits assumed): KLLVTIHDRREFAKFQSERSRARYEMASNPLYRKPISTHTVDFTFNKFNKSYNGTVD
Experimental: FIG. 29A. Competitive binding of Annexin V to β5 integrin with VISY peptide. Binding assays were performed by ELISA.
as §1
A reciprocal study was performed, using Annexin V to coat plates and adding GST fusion proteins of integrin cytoplasmic domains. Binding was assessed using anti-GST fusion protein antibodies. […] In some studies, calcium ion appeared to interfere with the binding interaction between GST-β5 and Annexin V, with decreased binding observed in the presence of calcium (not shown).

GST-β3 = molecular target: T3, GST-β3 (Homo sapiens, UniProt P05106); test: Annexin V binding to GST-β3 integrin cytoplasmic domain (ELISA)
T3 sequence (P05106 742-788 limits assumed): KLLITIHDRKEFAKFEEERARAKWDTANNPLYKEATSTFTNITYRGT
Experimental: as §1

placenta [1] = test: Peptide embryotoxicity in pregnant mice; type: in vivo, mouse; settings: subcutaneous injections from ~12 dpc
Source text: FIG. 7. TPKTSVT (SEQ ID NO:5) peptide inhibits mouse pregnancy and is teratogenic. (A) Pregnancy courses (representative from 5 independent experiments) in mice subcutaneously injected with the indicated phage or peptides were monitored by daily weighing of the mice upon each injection (arrows). (B) Appearance of a normally developed 20 dpc embryo (left) for control GST fusion treatment compared to a representative 20 dpc embryo (right) resulting from TPKTSVT (SEQ ID NO:5) linked to GST fusion treatment. A severely teratogenic phenotype is observed with the placental targeting fusion peptide. (C) and […]) Hematoxylin/eosin staining of 20 dpc paraffin-embedded placentas derived from mice injected for 7 days with (C) control GST fusion or (D) the TPKTSVT (SEQ ID NO:5) linked to GST fusion peptide. Note hemorrhage (black asterisks), necrosis (white asterisks), and fibrosis (arrowheads). Bar: 500 μm (50 μm for insets).
Peptide Embryotoxicity For peptide embryotoxicity studies, agents were injected at the following daily doses: GST-peptides 0.1 mg (˜3 nMoles), FITC-peptides 50 μg (˜30 nMoles),and phage-peptides 10″ TU. All agents were dissolved in PBS. Mice were injected subcutaneously in the back (5-10 injections per course).
The phage or fusion peptides were subcutaneously injected and the progression of pregnancy was compared with mice injected with control phage, control peptides, or saline. Multiple injections of the TPKTSVT (SEQ ID NO:5) peptide were administered, starting at mid-pregnancy (˜12 days postconception, dpc) in doses non-toxic to the mother.

placental transporter = test: Phage recovery from embryos (materno-fetal transfer); type: in vivo, mouse; settings: excess of co-injected peptide
Experimental: FIG. 4. The TPKTSVT (SEQ ID NO:5) peptide specifically binds a placental transporter. (A) Recovery of indicated phage from embryos carried by 18 dpc pregnant mice intravenously injected (tail vein) with 10^10 TU of the indicated phage 6 h prior to phage recovery or immunohistochemistry. […] TPKTSVT (SEQ ID NO:5) phage were administered alone (dark cross-hatched) or co-administered with control-GST (black) or TPKTSVT (SEQ ID NO:5) linked to GST (white bar). Shown are mean+/−SEM (standard error) from different embryos. (B-D) Anti-phage IMP immunohistochemistry (arrowheads) in paraffin sections of the vys from the corresponding mice, as indicated. Asterisks mark embryonic capillaries. Bar: 20 μm.
Phage Recovery Mouse placentas and embryonic livers were individually weighed, ground with a glass Dounce homogenizer and suspended in 1 ml of Dulbecco's Modified Eagle's Medium (DMEM) containing proteinase inhibitors (DMEM-prin—1 mM PMSF, 20 μg/ml aprotinin, and 1 μg/ml leupeptin). The suspension was vortexed and washed three times with DMEM-prin. […]
The TPKTSVT (SEQ ID NO:5) Peptide Binds to a Placental Transporter The TPKTSVT (SEQ ID NO:5) peptide localizes to the vys (FIG. 3), which is the tissue primarily responsible for materno-fetal transport in mice. […] Either TPKTSVT (SEQ ID NO:5)-phage or control phage were injected into pregnant mice and the recovery of phage from embryos was determined.

[2] = test system: mouse villous yolk sac (vys); test: Peptide localization in placenta (immunohistochemistry, FITC immunofluorescence); type: in vivo; settings: 18 dpc pregnant mice, intravenous, 6 h
Experimental: Fusion and Recombinant Peptides Carboxyfluorescein (FITC)-conjugated [sequence] […] The FITC-peptide stocks were made by dissolving lyophilized peptides in DMSO to a concentration of 20 mM, after which the peptides were diluted to 1 mM with PBS (phosphate buffered saline) and aliquots were frozen until use. The [sequence] (SEQ ID NO:144) peptide and an unrelated control peptide, [sequence] (SEQ ID NO:87), fused in-frame with GST at the amino-terminus were purified to approximately 90% purity using the BugBuster GST Bind Kit (Novagen, Madison, Wis.). Purified peptides were buffer-exchanged into PBS using Centricon PL-10 columns (Millipore, Bedford, Mass.) and the aliquots were frozen until use. […]
Peptide Localization in Tissues Immunohistochemistry on sections of formalin-fixed, paraffin-embedded mouse tissue was performed as described (Pasqualini et al., 2000; Pasqualini and Ruoslahti, 1996): For phage-peptide immunolocalization, a rabbit anti-fd phage antibody (Sigma Chemicals, St. Louis, Mo.) was used at 1:1,000 dilution and detected with a secondary horseradish peroxidase (HRP)-conjugated antibody. For GST-peptide immunolocalization, a goat anti-GST antibody (Amersham, Piscataway, N.J.) was used at 1:1,000 dilution and detected with a secondary alkaline phosphatase (AP)-conjugated antibody. […]

placenta [3] = settings: GST conjugates-I; 1 mouse sc (predominantly) or iv ~every other day, day 4-day 17, 10 times, Total 800 μg
Source text: The CARAC peptide (SEQ ID NO:12), an adipose targeting peptide (FE, TREVHRS, SEQ ID NO:13) or fd-tet phage were used as non-placental targeting controls.

[4] = molecular target: T4, FcRn/β2m receptor complex (Mus musculus, UniProt P01887+Q61559); test: Placental IgG transcytosis blocking; type: in vivo; settings: 18 dpc pregnant mouse, iv, 6 h
T4 construct: from tissue; host or cells: placenta (visceral yolk sac) of 18 dpc pregnant C57BL/6 mice, in vivo
T4 sequence (Q61559 22-365): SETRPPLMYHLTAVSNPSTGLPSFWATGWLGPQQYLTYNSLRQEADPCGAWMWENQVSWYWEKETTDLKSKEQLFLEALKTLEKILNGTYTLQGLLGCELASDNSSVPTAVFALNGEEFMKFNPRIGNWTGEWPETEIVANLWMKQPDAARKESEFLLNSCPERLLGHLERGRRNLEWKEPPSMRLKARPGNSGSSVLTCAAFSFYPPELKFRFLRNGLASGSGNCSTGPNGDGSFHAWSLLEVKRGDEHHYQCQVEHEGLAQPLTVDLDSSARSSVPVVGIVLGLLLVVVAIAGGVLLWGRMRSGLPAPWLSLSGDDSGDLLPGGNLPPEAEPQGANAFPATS
T4 sequence (P01887 21-119): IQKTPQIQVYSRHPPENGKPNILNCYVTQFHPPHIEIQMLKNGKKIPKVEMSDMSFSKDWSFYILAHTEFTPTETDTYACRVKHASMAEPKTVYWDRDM
Experimental: A 18 dpc pregnant mouse was intravenously injected with: (A) 100 mg of control GST fusion or (B) TPKTSVT (SEQ ID NO:5) linked to GST. The IgG distribution in the placenta after 6 h of peptide circulation was detected by anti-mouse IgG immunohistochemistry in paraffin sections.
For in vivo peptide homing validation, 10 μl of FTC-peptide stocks diluted 20-fold with PBS or, 250 μl of 5 mg/ml GST-peptides were injected. For phage homing competition and IgG transcytosis blocking experiments, 500 μl of 5 mg/ml GST-peptides were administered intravenously.
For GST-peptide immunolocalization, a goat anti-GST antibody (Amersham, Piscataway, N.J.) was used at 1:1,000 dilution and detected with a secondary alkaline phosphatase (AP)-conjugated antibody. For mouse IgG immunolocalization, the ARK Peroxidase Kit (DAKO, Carpinteria, Calif.) was used. All immunohistochemistry and FITC immunofluorescence images were captured using an Olympus IX70 microscope and digital camera setup.

T1 sequence (P05556 752-798 limits assumed): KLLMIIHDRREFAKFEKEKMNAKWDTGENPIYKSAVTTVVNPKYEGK

Row | Substance | binding of Annexin V to GST-β1 integrin (GST-β1) | binding of Annexin V to GST-β5 integrin (β5 integrin) | binding of Annexin V to GST-β3 integrin (GST-β3) | embryos on the 20th day of pregnancy (placenta [1]) | progression of pregnancy (weight gain) (placenta [1]; compared to control phage or GST-peptide) | effect on materno-fetal transfer / vys uptake of TPKTSVT-phage on co-injection (placental transporter) | localization in placenta [2] | Peptide Effect on Embryo (placenta [3]) | Pregnancy Outcome (placenta [3]) | effect on placental transfer of IgG to the vys [4]
1 | Annexin V: 36 kDa endogenous protein analog of the VISY peptide, GenBank GI-468888 | did not bind | bound strongly | did not bind | – | – | – | – | – | – | –
2 | GST-PA: PA placental targeting peptide (TPKTSVT) fused to GST (glutathion S-transferase) | – | – | – | Growth-retarded, dead, or partially resorbed embryos | diminished weight gain | prevented internalization | readily detectable in the apical cytoplasm of the vys | Pregnancy termination | No delivery or fetuses after 21 d | blocked translocation of IgG through the placenta
